B1: glmS ribozyme (parent)
chain: AUAAAAGCGCCAGAACUACAGAAAUGUAGUUGACGAGGAGGAGGUUUAUCGAAUUUUCGGCGGAUGCCUCCAAA

What all share (settings): with glucosamine-6-phosphate
Variants of B1 are the subject of series [1]. The series can be described thus: kcat; higher = faster cleavage; RNA array. The procedure, abridged: (§1)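 Weighted Michaelis–Menten fits across concentrations supplied kcat and KM, based on kobs from one- or two-exponential decay fits to normalised per-tile medians. The data came from barcoded ribozyme variants transcribed in situ by E. coli RNA polymerase on sequenced MiSeq chips and tracked at 37 °C by a hybridised Cy3 probe. Glucosamine-6-phosphate (40 μM to 10 mM) in HEPES/KCl/Mg(OAc)2 buffer was flowed in.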

In series [2] the parent is B1. Briefly: self-cleavage kobs at 640 uM GlcN6P; higher = faster cleavage; RNA array. The procedure, abridged: as §1
Variants of B1 are the subject of series [3]. The series can be described thus: self-cleavage kobs at 2500 uM GlcN6P; higher = faster cleavage; RNA array. The procedure, abridged: as §1
Variants of B1 are the subject of series [4]. The series can be described thus: self-cleavage kobs at 10000 uM GlcN6P; higher = faster cleavage; RNA array. In short, it runs like this:
as §1

Variants of B1 are the subject of series [5]. The series can be described thus: self-cleavage kobs at 160 uM GlcN6P; higher = faster cleavage; RNA array. In short, it runs like this: as §1
Series [6] covers variants of B1. The series can be described thus: KM; higher = weaker cofactor use; RNA array. In short, it runs like this: as §1
Series [7] covers variants of B1. Briefly: self-cleavage kobs at 40 uM GlcN6P; higher = faster cleavage; RNA array. The procedure, abridged: as §1

Data on eight variants can be found in the supplement of paper PMC7125110.

± gives the standard error. For some of these results: Fewer inactive variants are shown than the library holds.

The kcat is the number of substrate molecules converted per active site and unit of time at saturation. Take AUAAAAGCGCCAGAACUACAGAAAUGUAGUUAACGAGGAGGAGGGUUAUCGAAUUUUCGGCGGAUGCCUCCAAA [G32A U45G]: the kcat in series [1] turned out to be 0.000591 ± 0.00017 s⁻¹. Also, the “self-cleavage kobs at 640 uM GlcN6P” value in series [2] is 0.000212 ± 4.3e-05 s⁻¹. Besides, the “self-cleavage kobs at 2500 uM GlcN6P” value in series [3] was 0.000204 ± 5.3e-05 s⁻¹. The “self-cleavage kobs at 10000 uM GlcN6P” value in series [4] was 0.000488 ± 5.2e-05 s⁻¹.

AUAAAAGCGCCAGAACUACAGAAAUGUAAUUGACGAGGAGGAGGUGUAUCGAAUUUUCGGCGGAUGCCUCCAAA [G29A U46G]: the kcat in series [1] stood at 0.00124 ± 0.00055 s⁻¹. Besides, the “self-cleavage kobs at 160 uM GlcN6P” value in series [5] came out at 5.62e-05 ± 1.3e-05 s⁻¹. The “self-cleavage kobs at 640 uM GlcN6P” value in series [2] is 0.000243 ± 4.1e-05 s⁻¹. Moreover, in series [3], the “self-cleavage kobs at 2500 uM GlcN6P” value worked out at 0.000425 ± 7.7e-05 s⁻¹. In series [4], the “self-cleavage kobs at 10000 uM GlcN6P” value is 0.00128 ± 0.00027 s⁻¹.

One may read the KM as the substrate concentration at which the rate is half of its maximum. Regarding AUAAAAGCGCCAGAACUACAGAAAUGUAGUUGACGAGGCGGGGGUUUAUCGAAUUUUCGGCGGAUGCCUCCAAA [A39C A42G], in series [1], the kcat worked out at 0.00493 ± 0.0008 s⁻¹. In addition, the KM in series [6] was found to be 1490 ± 310 µM. Besides, the “self-cleavage kobs at 40 uM GlcN6P” value in series [7] amounted to 0.000141 ± 1.4e-05 s⁻¹. Moreover, the “self-cleavage kobs at 160 uM GlcN6P” value in series [5] was found to be 0.000376 ± 7.6e-05 s⁻¹. Also, the “self-cleavage kobs at 640 uM GlcN6P” value in series [2] turned out to be 0.00152 ± 0.00029 s⁻¹. Further, the “self-cleavage kobs at 2500 uM GlcN6P” value in series [3] was 0.00282 ± 0.00046 s⁻¹. For the same variant, in series [4], the “self-cleavage kobs at 10000 uM GlcN6P” value amounted to 0.0047 ± 0.00074 s⁻¹.

For the variant AUAAAAGCGCCAGAACUACAGAAAUGUAGAUGACGAGGAGGAGGUCUAUCGAAUUUUCGGCGGAUGCCUCCAAA [U30A U46C], in series [1], the catalytic constant (kcat) came out at 0.000377 ± 6.9e-05 s⁻¹. Also, the KM in series [6] was determined as 1730 ± 750 µM. Moreover, the “self-cleavage kobs at 640 uM GlcN6P” value in series [2] amounted to 0.000117 ± 3.5e-05 s⁻¹. In series [4], the “self-cleavage kobs at 10000 uM GlcN6P” value came to 0.000332 ± 7e-05 s⁻¹.

For AUAAAAGCGCCAAAACUACAGAAAUGUAGUUGACGAGGAGGAGGUUUAUCGAAAUUUCGGCGGAUGCCUCCAAA [G13A U54A], in series [1], the turnover number (kcat) is 0.000832 ± 0.00029 s⁻¹. The “self-cleavage kobs at 40 uM GlcN6P” value in series [7] worked out at 5.62e-05 ± 2.4e-05 s⁻¹. In series [5], the “self-cleavage kobs at 160 uM GlcN6P” value was 5.51e-05 ± 1.6e-05 s⁻¹. Further, the “self-cleavage kobs at 640 uM GlcN6P” value in series [2] stood at 0.000147 ± 3.8e-05 s⁻¹. Moreover, the “self-cleavage kobs at 2500 uM GlcN6P” value in series [3] is 0.000299 ± 5.6e-05 s⁻¹. For the same variant, in series [4], the “self-cleavage kobs at 10000 uM GlcN6P” value came to 0.000709 ± 0.0001 s⁻¹.

For the variant AUAAAUGCGCCAGAACUACAGAAAUGUAGUUGACGAGGAGGAGGUUUAUCGAUUUUUCGGCGGAUGCCUCCAAA [A6U A53U], the kcat in series [1] came out at 0.000209 ± 3.5e-05 s⁻¹. In addition, the KM in series [6] is 2570 ± 1100 µM. Further, the “self-cleavage kobs at 2500 uM GlcN6P” value in series [3] turned out to be 0.000114 ± 1.6e-05 s⁻¹. For the same variant, in series [4], the “self-cleavage kobs at 10000 uM GlcN6P” value amounted to 0.000159 ± 2.3e-05 s⁻¹.

Regarding AUAAAAGCGCCAGAACUACAGAAAUGUAGUUGACGAGGUGGAGGUUUAGCGAAUUUUCGGCGGAUGCCUCCAAA [A39U U49G], in series [1], the catalytic constant (kcat) was 0.00055 ± 0.00012 s⁻¹. In addition, the “self-cleavage kobs at 640 uM GlcN6P” value in series [2] is 0.000168 ± 5.1e-05 s⁻¹. Further, in series [3], the “self-cleavage kobs at 2500 uM GlcN6P” value is 0.000231 ± 6.6e-05 s⁻¹. Further, in series [4], the “self-cleavage kobs at 10000 uM GlcN6P” value came to 0.000461 ± 7.3e-05 s⁻¹.

On to AUAAAGGCGCCAGAACUACAGAAAUGUAGUUGACGAGGAGGGGGUUUAUCGAAUUUUCGGCGGAUGCCUCCAAA [A6G A42G], for which the catalytic constant (kcat) in series [1] is 0.000724 ± 0.00013 s⁻¹. Besides, the Michaelis constant (KM) in series [6] amounted to 2730 ± 960 µM. Also, in series [5], the “self-cleavage kobs at 160 uM GlcN6P” value turned out to be 2.26e-05 ± 1.1e-05 s⁻¹. Also, the “self-cleavage kobs at 640 uM GlcN6P” value in series [2] amounted to 0.000175 ± 2.3e-05 s⁻¹. Besides, the “self-cleavage kobs at 2500 uM GlcN6P” value in series [3] came out at 0.000329 ± 4.6e-05 s⁻¹. Moreover, the “self-cleavage kobs at 10000 uM GlcN6P” value in series [4] was found to be 0.000569 ± 5.1e-05 s⁻¹.
